Assay: In vitro release test of Pluronic F127 hydrogel with model molecules
Format: physicochemical
Conditions: F127 20% w/v, 60 ml H2O, 37° C., FIG. 6D
Protocol: 2 mL of loaded hydrogel containing 4 mg of myoglobin or prednisolone in a solution of 20% Pluronic F127 w/v were introduced into a dialysis membrane bag (MWCO 3500 Da), and the dialysis bag sealed at the end was incubated in 60 mL of release medium (distilled water) at 37° C. and was stirred at a rate of 50 rpm. Saturation conditions were avoided by means of frequent substitution of fresh water. At predetermined intervals, aliquots of 0.5 mL of release medium were removed and substituted with an equal volume of fresh solution. The release behaviour in vitro of hydrogel loaded with myoglobin was compared with that of hydrogel loaded with prednisolone. All the assays were conducted in triplicate. Release profiles were expressed in cumulative release percentages over time.
The loaded hydrogels were prepared by solubilising at low temperature, in a 5 ml vial, an exact quantity of model molecule (approximately 4-5 mg) in 2 ml of solution of F127 20% w/v; the solution was then brought to the hydrogel state by placing the hermetically sealed vial at 37° C. The vial, closed at the head with a perforated mesh, was then introduced into the release medium (60 ml bidistilled H2O, T=37° C.) and held under constant and gentle stirring. The release therefore occurred by means of diffusion from the upper surface of the gel to the dissolution medium. […]

| Molecule | release profile from Pluronic F127 hydrogel, comparison of the two model molecules |
| --- | --- |
| myoglobin | almost identical for the two different molecules |
| C[C@]12C=CC(=O)C=C1CC[C@@H]1[C@@H]2[C@@H](O)C[C@@]2(C)[C@H]1CC[C@]2(O)C(=O)CO [prednisolone] | almost identical for the two different molecules |
